Measured values: patent US20210395381A1 (OSSIANIX, published 2021)
Positions count from the first letter of the chain named.

B1: Clone 8.31 (VNAR)
VNAR: ARVDQTPQTITKETGESLTINCVLRDSNCALPSTYWYRKKSGSTNEESISKGGRYVETVNSGSKSFSLRINDLTVEDSGTYRCKVIAQLISILRGCNKNKHDVYGDGTAVTVNA
notes: VNAR on phage; Clone 8 framework
B2: Clone 8.32 (VNAR)
VNAR: B1 VNAR with I90S, L93W, R94K, N97K, K98Y, N99R
notes: as for B1
B3: Clone 8.33 (VNAR)
VNAR: B1 VNAR with I86R, A87D, Q88A, I90S, K98Y, N99R
notes: as for B1
B4: Clone 8.34 (VNAR)
VNAR: B1 VNAR with I90S, K98Y, N99I, K100A, H101Y
notes: as for B1
B5: Clone 8.35 (VNAR)
VNAR: B1 VNAR with Q88E, I90F, K98Y, N99R
notes: as for B1
B6: Clone 8.36 (VNAR)
VNAR: B1 VNAR with I90S, K98Y, N99W, K100R, H101W
notes: as for B1
B7: Clone 8.37 (VNAR)
VNAR: B1 VNAR with I90S, I92Q, L93R, R94W, K98Y, N99R
notes: as for B1
B8: Clone 8.38 (VNAR)
VNAR: B1 VNAR with I90V, S91L, I92N, K98Y, N99R
notes: as for B1
B9: Clone 8.39 (VNAR)
VNAR: B1 VNAR with I90S, R94D, G95D, N97E, K98Y, N99R
notes: as for B1
B10: Clone 8.40 (VNAR)
VNAR: B1 VNAR with I90Y, S91V, I92G, K98Y, N99R
notes: as for B1
B11: Clone 8.41 (VNAR)
VNAR: B1 VNAR with Q88P, L89Q, I90K, K98Y, N99H, H101I
notes: as for B1
B12: Clone 8.42 (VNAR)
VNAR: B1 VNAR with I90F, S91I, I92D, K98Y, N99R
notes: as for B1
B13: Clone 8.43 (VNAR)
VNAR: B1 VNAR with I90S, R94K, G95P, N97W, K98Y, N99R
notes: as for B1
B14: Clone 8.44 (VNAR)
VNAR: B1 VNAR with I90S, K98Y, N99L, K100S, H101M
notes: as for B1
B15: Clone 8.45 (VNAR)
VNAR: B1 VNAR with I90S, K98Y, K100M, H101E
notes: as for B1
B16: Clone 8.46 (VNAR)
VNAR: B1 VNAR with I90S, I92Y, L93V, R94V, K98Y, N99R
notes: as for B1
B17: Clone 8.47 (VNAR)
VNAR: B1 VNAR with I86Q, A87T, Q88T, I90S, K98Y, N99R
notes: as for B1
B18: Clone 8.48 (VNAR)
VNAR: B1 VNAR with I90S, K98Y, N99M, K100M, H101Y
notes: as for B1
B19: Clone 8.49 (VNAR)
VNAR: B1 VNAR with Q88E, L89M, I90G, K98Y, N99R
notes: as for B1
B20: Clone 8.50 (VNAR)
VNAR: B1 VNAR with Q88N, I90S, K98Y, N99R
notes: as for B1
B21: Clone 8.51 (VNAR)
VNAR: B1 VNAR with I90S, I92D, L93H, R94P, K98Y, N99R
notes: as for B1
B22: Clone 8.52 (VNAR)
VNAR: B1 VNAR with I90S, N97D, K98R, N99W
notes: as for B1
B23: Clone 8.53 (VNAR)
VNAR: B1 VNAR with I90S, K98Y, N99A, K100W, H101L
notes: as for B1
B24: Clone 8.54 (VNAR)
VNAR: B1 VNAR with Q88S, L89A, I90V, K98Y, N99R
notes: as for B1
B25: Clone 8.55 (VNAR)
VNAR: B1 VNAR with I90S, R94F, G95W, N97A, K98Y, N99R
notes: as for B1
B26: Clone 8.56 (VNAR)
VNAR: B1 VNAR with I90S, N97T, K98F, N99D
notes: as for B1
B27: Clone 8.57 (VNAR)
VNAR: B1 VNAR with I90G, S91N, I92L, K98Y, N99R
notes: as for B1
B28: Clone 8.58 (VNAR)
VNAR: B1 VNAR with I90S, I92A, L93G, R94M, K98Y, N99R
notes: as for B1
B29: Clone 8.59 (VNAR)
VNAR: B1 VNAR with I90S, I92H, L93D, R94H, K98Y, N99R
notes: as for B1
B30: Clone 8.60 (VNAR)
VNAR: B1 VNAR with I90S, R94L, G95T, N97L, K98Y, N99R
notes: as for B1
B31: Clone 8.61 (VNAR)
VNAR: B1 VNAR with I90S, R94Q, G95R, K98Y, N99R
notes: as for B1
B32: Clone 8.62 (VNAR)
VNAR: B1 VNAR with I90S, K98Y, N99A, K100A, H101G
notes: as for B1
B33: Clone 8.63 (VNAR)
VNAR: B1 VNAR with I86Y, A87R, Q88Y, I90S, K98Y, N99R
notes: as for B1
B34: Clone 8.64 (VNAR)
VNAR: B1 VNAR with I90A, S91F, I92W, K98Y, N99R
notes: as for B1
B35: Clone 8.65 (VNAR)
VNAR: B1 VNAR with I90S, L93H, R94D, K98Y, N99R
notes: as for B1
B36: Clone 8.66 (VNAR)
VNAR: B1 VNAR with I90S, K98Y, N99L, K100A
notes: as for B1
B37: Clone 8.67 (VNAR)
VNAR: B1 VNAR with I90S, N97V, K98E, N99P
notes: as for B1
B38: Clone 8.68 (VNAR)
VNAR: B1 VNAR with I90S, R94S, G95S, N97H, K98Y, N99R
notes: as for B1
B39: Clone 8.69 (VNAR)
VNAR: B1 VNAR with I90S, I92A, L93P, R94A, K98Y, N99R
notes: as for B1
B40: Clone 8.70 (VNAR)
VNAR: B1 VNAR with I90S, K98Y, N99Q, K100T, H101S
notes: as for B1
B41: Clone 8.71 (VNAR)
VNAR: B1 VNAR with I90S, N97T, K98P, N99H
notes: as for B1
B42: Clone 8.72 (VNAR)
VNAR: B1 VNAR with I90S, N97S, K98G, N99V
notes: as for B1
B43: Clone 8.73 (VNAR)
VNAR: B1 VNAR with I90S, R94K, K98Y, N99R
notes: as for B1
B44: Clone 8.74 (VNAR)
VNAR: B1 VNAR with I90S, I92L, L93Q, R94D, N97I, K98Y, N99R
notes: as for B1
B45: Clone 8.75 (VNAR)
VNAR: B1 VNAR with I90T, S91E, I92M, K98Y, N99R
notes: as for B1
B46: Clone 8.76 (VNAR)
VNAR: B1 VNAR with I86Q, A87E, Q88E, I90S, K98Y, N99R
notes: as for B1
B47: Clone 8.77 (VNAR)
VNAR: B1 VNAR with I90S, N97H, K98L, N99W
notes: as for B1
B48: Clone 8.78 (VNAR)
VNAR: B1 VNAR with I90S, I92V, L93V, R94I, K98Y, N99S
notes: as for B1
B49: Clone 8.79 (VNAR)
VNAR: B1 VNAR with I86M, A87N, I90D, S91H, I92F, K98Y, N99R
notes: as for B1
B50: Clone 8.80 (VNAR)
VNAR: B1 VNAR with I90P, S91H, I92D, K98Y, N99R
notes: as for B1
B51: Clone 8.81 (VNAR)
VNAR: B1 VNAR with I90S, I92A, L93P, R94D, K98Y, N99R
notes: as for B1
B52: Clone 8.82 (VNAR)
VNAR: B1 VNAR with I90S, N97V, K98Y, N99P
notes: as for B1
B53: Clone 8.83 (VNAR)
VNAR: B1 VNAR with I90S, L93R, R94A, K98Y, N99R
notes: as for B1

Columns and labels:
recombinant human TfR-1 = target: T1, recombinant human TfR-1 (human, UniProt P02786 89-760); test: phage ELISA
T1 construct: Recombinant protein coated at 1 ug/ml in the phage ELISA; also called hTfR1; human transferrin receptor-1
T1 sequence (P02786 89-760 limits assumed): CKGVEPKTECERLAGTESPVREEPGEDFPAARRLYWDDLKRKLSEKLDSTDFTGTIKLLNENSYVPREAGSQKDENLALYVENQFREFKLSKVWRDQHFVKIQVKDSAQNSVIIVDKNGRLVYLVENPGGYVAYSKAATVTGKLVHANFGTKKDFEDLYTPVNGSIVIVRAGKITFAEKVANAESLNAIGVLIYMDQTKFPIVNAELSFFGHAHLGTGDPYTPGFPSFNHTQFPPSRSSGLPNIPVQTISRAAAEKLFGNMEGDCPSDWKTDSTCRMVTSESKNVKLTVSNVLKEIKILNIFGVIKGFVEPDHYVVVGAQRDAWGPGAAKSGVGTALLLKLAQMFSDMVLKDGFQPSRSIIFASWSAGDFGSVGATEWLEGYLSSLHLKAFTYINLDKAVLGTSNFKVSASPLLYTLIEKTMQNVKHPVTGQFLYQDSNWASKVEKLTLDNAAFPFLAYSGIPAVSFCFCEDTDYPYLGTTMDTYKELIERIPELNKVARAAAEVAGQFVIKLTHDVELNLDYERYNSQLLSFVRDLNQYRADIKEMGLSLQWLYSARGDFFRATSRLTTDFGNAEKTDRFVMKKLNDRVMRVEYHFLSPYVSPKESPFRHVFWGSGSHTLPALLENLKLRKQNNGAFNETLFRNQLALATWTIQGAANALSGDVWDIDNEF

recombinant mouse TfR-1 = target: T2, recombinant mouse TfR-1 (mouse, UniProt Q62351 89-763); test: phage ELISA
T2 construct: Recombinant protein coated at 1 ug/ml in the phage ELISA; also called mTfR1; mouse transferrin receptor-1
T2 sequence (Q62351 89-763 limits assumed): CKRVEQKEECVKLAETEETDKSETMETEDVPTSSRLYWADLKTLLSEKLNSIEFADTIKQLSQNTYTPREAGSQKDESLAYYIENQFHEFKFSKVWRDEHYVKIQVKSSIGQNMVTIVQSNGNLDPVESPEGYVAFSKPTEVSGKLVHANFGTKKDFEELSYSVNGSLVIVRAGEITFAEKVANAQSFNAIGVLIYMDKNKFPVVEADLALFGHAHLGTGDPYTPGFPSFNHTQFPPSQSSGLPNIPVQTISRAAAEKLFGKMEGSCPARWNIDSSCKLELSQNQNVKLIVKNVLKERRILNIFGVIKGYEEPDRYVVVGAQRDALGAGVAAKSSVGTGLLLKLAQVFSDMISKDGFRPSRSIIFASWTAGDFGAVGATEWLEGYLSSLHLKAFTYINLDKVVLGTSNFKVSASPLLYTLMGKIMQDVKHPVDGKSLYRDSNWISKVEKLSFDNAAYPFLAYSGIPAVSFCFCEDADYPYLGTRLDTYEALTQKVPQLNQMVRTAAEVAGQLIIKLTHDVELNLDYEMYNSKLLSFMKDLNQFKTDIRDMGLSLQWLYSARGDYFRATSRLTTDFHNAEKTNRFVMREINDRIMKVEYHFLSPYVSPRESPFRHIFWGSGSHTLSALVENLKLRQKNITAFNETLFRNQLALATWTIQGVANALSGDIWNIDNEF

Row | Binder | A450 (recombinant human TfR-1) [A450] | A450 (recombinant mouse TfR-1) [A450]
1 | B1 | 0.077 | 0.075
2 | B2 | 0.065 | 0.074
3 | B3 | 0.09 | 0.073
4 | B4 | 0.078 | 0.072
5 | B5 | 0.078 | 0.071
6 | B6 | 0.058 | 0.071
7 | B7 | 0.069 | 0.071
8 | B8 | 0.075 | 0.071
9 | B9 | 0.063 | 0.07
10 | B10 | 0.066 | 0.07
11 | B11 | 0.072 | 0.068
12 | B12 | 0.062 | 0.068
13 | B13 | 0.093 | 0.067
14 | B14 | 0.056 | 0.067
15 | B15 | 0.06 | 0.067
16 | B16 | 0.056 | 0.067
17 | B17 | 0.072 | 0.067
18 | B18 | 0.082 | 0.066
19 | B19 | 0.06 | 0.065
20 | B20 | 0.057 | 0.065
21 | B21 | 0.058 | 0.065
22 | B22 | 0.049 | 0.065
23 | B23 | 0.051 | 0.065
24 | B24 | 0.072 | 0.065
25 | B25 | 0.055 | 0.064
26 | B26 | 0.051 | 0.064
27 | B27 | 0.083 | 0.063

Row | Binder | A450 (recombinant human TfR-1) [A450] | A450 (recombinant mouse TfR-1) [A450]
28 | B28 | 0.059 | 0.063
29 | B29 | 0.073 | 0.063
30 | B30 | 0.073 | 0.063
31 | B31 | 0.067 | 0.063
32 | B32 | 0.056 | 0.063
33 | B33 | 0.071 | 0.063
34 | B34 | 0.083 | 0.062
35 | B35 | 0.081 | 0.062
36 | B36 | 0.052 | 0.062
37 | B37 | 0.051 | 0.062
38 | B38 | 0.056 | 0.062
39 | B39 | 0.065 | 0.061
40 | B40 | 0.052 | 0.061
41 | B41 | 0.073 | 0.061
42 | B42 | 0.063 | 0.06
43 | B43 | 0.051 | 0.059
44 | B44 | 0.061 | 0.059
45 | B45 | 0.049 | 0.059
46 | B46 | 0.05 | 0.059
47 | B47 | 0.055 | 0.058
48 | B48 | 0.049 | 0.058
49 | B49 | 0.061 | 0.058
50 | B50 | 0.059 | 0.057
51 | B51 | 0.065 | 0.057
52 | B52 | 0.048 | 0.057
53 | B53 | 0.046 | 0.057
